Data on one molecule can be found in paper PMC7332966 (2020).

This experiment deals with FANCD2 (from His6-3C-FANCD2, His6-tag cleaved by 3C protease) (human, UniProt Q9BXW9 1-1451).
Chain of FANCD2 (from His6-3C-FANCD2, His6-tag cleaved by 3C protease) (Q9BXW9 whole entry): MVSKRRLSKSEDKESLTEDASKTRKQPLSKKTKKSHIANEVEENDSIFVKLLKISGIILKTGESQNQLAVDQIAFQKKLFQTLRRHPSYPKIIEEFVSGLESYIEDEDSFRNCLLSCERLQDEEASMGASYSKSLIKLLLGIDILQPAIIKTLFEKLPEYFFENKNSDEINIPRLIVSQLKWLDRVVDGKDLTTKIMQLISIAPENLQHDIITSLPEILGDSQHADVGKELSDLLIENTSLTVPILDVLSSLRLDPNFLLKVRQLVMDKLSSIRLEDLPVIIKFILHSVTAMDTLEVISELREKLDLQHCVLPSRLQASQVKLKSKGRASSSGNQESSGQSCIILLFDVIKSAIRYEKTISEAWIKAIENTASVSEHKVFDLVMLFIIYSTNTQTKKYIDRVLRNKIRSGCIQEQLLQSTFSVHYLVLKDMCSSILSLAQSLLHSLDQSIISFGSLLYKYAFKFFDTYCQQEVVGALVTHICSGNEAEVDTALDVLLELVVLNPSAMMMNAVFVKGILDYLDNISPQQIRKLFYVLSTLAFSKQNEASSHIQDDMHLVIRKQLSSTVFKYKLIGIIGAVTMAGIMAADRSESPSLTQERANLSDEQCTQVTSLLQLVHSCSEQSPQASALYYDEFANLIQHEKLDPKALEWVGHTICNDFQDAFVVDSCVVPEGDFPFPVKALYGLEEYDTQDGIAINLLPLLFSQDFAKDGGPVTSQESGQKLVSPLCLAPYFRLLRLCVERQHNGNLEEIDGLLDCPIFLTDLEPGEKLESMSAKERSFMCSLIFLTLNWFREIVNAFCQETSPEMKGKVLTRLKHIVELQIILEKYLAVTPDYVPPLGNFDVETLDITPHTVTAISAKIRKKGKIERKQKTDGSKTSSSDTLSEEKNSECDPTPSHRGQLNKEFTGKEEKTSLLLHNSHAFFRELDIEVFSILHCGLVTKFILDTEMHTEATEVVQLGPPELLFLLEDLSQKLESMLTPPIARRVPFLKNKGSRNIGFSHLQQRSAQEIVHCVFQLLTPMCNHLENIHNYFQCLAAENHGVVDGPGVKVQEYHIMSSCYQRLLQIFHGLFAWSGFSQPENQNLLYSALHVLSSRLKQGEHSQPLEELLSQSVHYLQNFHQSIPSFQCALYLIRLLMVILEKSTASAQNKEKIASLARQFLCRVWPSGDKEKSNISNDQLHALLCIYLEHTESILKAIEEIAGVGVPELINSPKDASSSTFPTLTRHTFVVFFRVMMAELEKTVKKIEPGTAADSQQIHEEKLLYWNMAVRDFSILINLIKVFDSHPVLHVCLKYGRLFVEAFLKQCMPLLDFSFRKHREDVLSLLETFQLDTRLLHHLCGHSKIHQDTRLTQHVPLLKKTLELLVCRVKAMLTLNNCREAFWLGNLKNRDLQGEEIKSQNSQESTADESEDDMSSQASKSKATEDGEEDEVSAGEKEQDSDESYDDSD

B1: His6-FANCI (wild type) (natural protein)
chain: MDQKILSLAAEKTADKLQEFLQTLREGDLTNLLQNQAVKGKVAGALLRAIFKGSPCSEEAGTLRRRKIYTCCIQLVESGDLQKEIASEIIGLLMLEAHHFPGPLLVELANEFISAVREGSLVNGKSLELLPIILTALATKKENLAYGKGVLSGEECKKQLINTLCSGRWDQQYVIQLTSMFKDVPLTAEEVEFVVEKALSMFSKMNLQEIPPLVYQLLVLSSKGSRKSVLEGIIAFFSALDKQHNEEQSGDELLDVVTVPSGELRHVEGTIILHIVFAIKLDYELGRELVKHLKVGQQGDSNNNLSPFSIALLLSVTRIQRFQDQVLDLLKTSVVKSFKDLQLLQGSKFLQNLVPHRSYVSTMILEVVKNSVHSWDHVTQGLVELGFILMDSYGPKKVLDGKTIETSPSLSRMPNQHACKLGANILLETFKIHEMIRQEILEQVLNRVVTRASSPISHFLDLLSNIVMYAPLVLQSCSSKVTEAFDYLSFLPLQTVQRLLKAVQPLLKVSMSMRDCLILVLRKAMFANQLDARKSAVAGFLLLLKNFKVLGSLSSSQCSQSLSVSQVHVDVHSHYNSVANETFCLEIMDSLRRCLSQQADVRLMLYEGFYDVLRRNSQLANSVMQTLLSQLKQFYEPKPDLLPPLKLEACILTQGDKISLQEPLDYLLCCIQHCLAWYKNTVIPLQQGEEEEEEEEAFYEDLDDILESITNRMIKSELEDFELDKSADFSQSTSIGIKNNICAFLVMGVCEVLIEYNFSISSFSKNRFEDILSLFMCYKKLSDILNEKAGKAKTKMANKTSDSLLSMKFVSSLLTALFRDSIQSHQESLSVLRSSNEFMRYAVNVALQKVQQLKETGHVSGPDGQNPEKIFQNLCDITRVLLWRYTSIPTSVEESGKKEKGKSISLLCLEGLQKIFSAVQQFYQPKIQQFLRALDVTDKEGEEREDADVSVTQRTAFQIRQFQRSLLNLLSSQEEDFNSKEALLLVTVLTSLSKLLEPSSPQFVQMLSWTSKICKENSREDALFCKSLMNLLFSLHVSYKSPVILLRDLSQDIHGHLGDIDQDVEVEKTNHFAIVNLRTAAPTVCLLVLSQAEKVLEEVDWLITKLKGQVSQETLSEEASSQATLPNQPVEKAIIMQLGTLLTFFHELVQTALPSGSCVDTLLKDLCKMYTTLTALVRYYLQVCQSSGGIPKNMEKLVKLSGSHLTPLCYSFISYVQNKSKSLNYTGEKKEKPAAVATAMARVLRETKPIPNLIFAIEQYEKFLIHLSKKSKVNLMQHMKLSTSRDFKIKGNILDMVLREDGEDENEEGTASEHGGQNKEPAKKKRKK
modifications: RED-tris-NTA dye (NanoTemper) on the His6 tag
By Kd is commonly meant the constant that tells how readily two partners part at equilibrium. B1 gave a Kd of 11 nM.
